{
  "source": "paper PMC8881488",
  "about": "“Intricate coupling between the transactivation and basic-leucine zipper domains governs phosphorylation of transcription factor ATF4 by casein kinase 2” (The Journal of Biological Chemistry, 2022)",
  "target": "T1, ATF4-275 (isolated transactivation domain of activating transcription factor 4) (human, UniProt P18848 1-275)",
  "T1 construct": "15N-labelled (expressed in minimal medium) for the NMR titration; also called isolated TAD; ATF4 TAD; not shown: GST, N-terminal, cleaved",
  "T1 sequence (looked up)": "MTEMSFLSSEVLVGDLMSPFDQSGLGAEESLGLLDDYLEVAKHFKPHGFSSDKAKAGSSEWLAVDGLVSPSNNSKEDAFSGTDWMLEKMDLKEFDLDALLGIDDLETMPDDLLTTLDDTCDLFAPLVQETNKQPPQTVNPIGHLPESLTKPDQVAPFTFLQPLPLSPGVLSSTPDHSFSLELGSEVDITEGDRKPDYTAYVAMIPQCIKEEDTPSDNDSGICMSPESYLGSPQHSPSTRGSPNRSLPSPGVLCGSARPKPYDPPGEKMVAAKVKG",
  "test": "NMR titration; 15N-labeled ATF4-275 titrated with increasing concentrations of unlabeled ATF4-bZip; 2D 1H-15N TROSY-HSQC, amide crosspeak intensity ratios; NMR samples in 20 mM MES pH 6.5, 50 mM NaCl",
  "details": "both partners purified",
  "data": [
    {"binder": "ATF4-bZip (isolated basic-leucine zipper domain of activating transcription factor 4) (domain or fragment, human, UniProt P18848 276-351, looked up, The limits 276-351 are those printed for the bZip domain; also called bZip domain; isolated bZip domain; source: E. coli BL21(DE3), purified (Glutathione-Sepharose, TEV cleavage, Superdex 200 gel filtration); not shown: GST, N-terminal, cleaved) EKLDKKLKKMEQNKTAATRYRQKKRAEQEALTGECKELEKKNEALKERADSLAKEIQYLKDLIEEVRKARGKKRVP", "values": [
      {"measurement": "binding result", "result": "binds"}
    ]}
  ]
}
